The assay addresses T1, C1q (complement protein C1q, intact) (human, UniProt P02745 23-245; P02746 28-253; P02747 29-245).
T1 construct: complement C1q subunit A, human; C1q purified from human serum; a hexamer of heterotrimers; complement C1q subunit B, human; complement C1q subunit C, human; also called intact C1q; whole C1q; source: purified from human serum; copies: 6 + 6 + 6
Put plainly: SPR; BIAcore 3000; PR3 immobilised on a CM5 chip by amine coupling; C1q, gC1q or cC1q as soluble analytes; 50 mM Tris, 150 mM NaCl, 2 mM Ca2+, 0.005% surfactant P20, pH 7.4; flow 20 µl/min; global fit to a 1:1 Langmuir model; apparent KD from koff/kon. To be noted: both partners purified. Background: SPR reads the build-up and loss of mass on a sensor chip optically.

T1 sequence (P02745 23-245, chain 1 of 3): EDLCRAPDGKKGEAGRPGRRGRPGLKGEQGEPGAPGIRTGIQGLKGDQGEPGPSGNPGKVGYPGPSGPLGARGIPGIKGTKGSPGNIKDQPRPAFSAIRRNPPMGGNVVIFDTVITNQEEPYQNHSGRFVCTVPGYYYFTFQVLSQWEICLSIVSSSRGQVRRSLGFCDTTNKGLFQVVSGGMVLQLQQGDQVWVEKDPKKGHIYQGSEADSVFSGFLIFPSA
T1 sequence (P02746 28-253, chain 2 of 3): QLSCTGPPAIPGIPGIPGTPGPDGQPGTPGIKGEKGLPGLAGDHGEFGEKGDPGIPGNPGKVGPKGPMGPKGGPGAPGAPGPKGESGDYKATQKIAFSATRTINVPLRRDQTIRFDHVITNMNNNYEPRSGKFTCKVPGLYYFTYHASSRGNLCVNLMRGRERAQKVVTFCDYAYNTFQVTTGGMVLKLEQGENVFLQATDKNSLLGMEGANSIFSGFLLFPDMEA
T1 sequence (P02747 29-245, chain 3 of 3): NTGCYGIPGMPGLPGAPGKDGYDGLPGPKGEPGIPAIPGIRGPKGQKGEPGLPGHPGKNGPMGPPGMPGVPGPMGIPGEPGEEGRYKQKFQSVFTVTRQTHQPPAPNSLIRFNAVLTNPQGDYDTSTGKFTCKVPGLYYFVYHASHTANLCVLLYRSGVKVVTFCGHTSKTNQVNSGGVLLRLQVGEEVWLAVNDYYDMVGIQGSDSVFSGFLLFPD

B1: Proteinase 3 (PR3), purified (enzyme, UniProt P24158 28-248, looked up)
chain: IVGGHEAQPHSRPYMASLQMRGNPGSHFCGGTLIHPSFVLTAAHCLRDIPQRLVNVVLGAHNVRTQEPTQQHFSVAQVFLNNYDAENKLNDVLLIQLSSPANLSASVATVQLPQQDQPVPHGTQCLAMGWGRVGAHDPPAQVLQELNVTVVTFFCRPHNICTFVPRRKAGICFGDSGGPLICDGIIQGIDSFVIWGCATRLFPDFFTRVALYVDWIRSTLR
notes: proteinase 3 (myeloblastin), neutrophil-derived serine protease; also called purified PR3; immobilized PR3; source: bought: Athens Research and Technology
Regarding B1, the Kd came out at 190 nM, the dissociation rate constant (koff) was determined as 0.00151 s⁻¹ and the kon was 7800 M⁻¹ s⁻¹.

For orientation: koff means the rate constant with which the complex falls apart. The kon is the rate constant with which the complex forms.

The record behind these values is publication PMC5932363, “Proteinase 3 Interferes With C1q-Mediated Clearance of Apoptotic Cells” (Frontiers in Immunology, 2018).
